Experimental data reported in publication PMC3400614, “Cofactor Binding Protects Flavodoxin against Oxidative Stress” (PLoS ONE, 2012).

Legend:
[1] = target: Apoflavodoxin (A. vinelandii flavodoxin II without FMN cofactor) (Azotobacter vinelandii) (UniProt P00324); assay: SEC; Superdex 75 HR 10/30, 0.5 mL/min, 25°C; apoprotein (38 μM wild type, 79 μM C69A) fresh and after 22-24 h with 10 mM H2O2 at 4°C; DTT removed before
[2] = target: Apoflavodoxin (A. vinelandii flavodoxin II without FMN cofactor) (Azotobacter vinelandii) (UniProt P00324); assay: anion exchange chromatography; MonoQ HR5/5, 25 mM Tris-HCl pH 8.0, KCl gradient, 1.0 mL/min, 25°C; apoflavodoxin 50 μM left without DTT
[3] = target: Apoflavodoxin (A. vinelandii flavodoxin II without FMN cofactor) (Azotobacter vinelandii) (UniProt P00324); assay: LC-MS; reversed phase (acetonitrile, TFA) and electrospray MS; protein 5 µM after 30 min at room temperature with 10 or 100 mM H2O2, with or without 190-200 µM NBD-Cl; denaturing, shows covalent dimers only
[4] = target: Apoflavodoxin (A. vinelandii flavodoxin II without FMN cofactor) (Azotobacter vinelandii) (UniProt P00324); assay: SEC; data not shown; apoflavodoxin freshly prepared and during storage
[5] = target: T1, flavodoxin II (flavodoxin; apoflavodoxin) (Azotobacter vinelandii, UniProt P00324); assay: native nano-electrospray mass spectrometry; assay type: binding; conditions: non-covalent, one FMN per monomer; 50 mM ammonium acetate, 0.1 mM EDTA, pH 6.8
T1 construct: gene nifF; full-length wild type, 179 residues, expressed in E. coli TG2 (pAV34); monomer; apoprotein made by TCA precipitation
T1 sequence (P00324 2-180): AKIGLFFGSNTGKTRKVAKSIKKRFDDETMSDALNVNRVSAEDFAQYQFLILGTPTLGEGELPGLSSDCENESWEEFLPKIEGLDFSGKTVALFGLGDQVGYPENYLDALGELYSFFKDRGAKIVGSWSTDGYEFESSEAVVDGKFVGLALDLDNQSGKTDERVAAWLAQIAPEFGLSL

| stoichiometry N [1] | stoichiometry N [2] | stoichiometry N [3] | stoichiometry N [4] | Compound | native nano-electrospray mass spectrometry [5] |
| --- | --- | --- | --- | --- | --- |
| 2 | 2 | 2 | 2 | Apoflavodoxin (A. vinelandii flavodoxin II without FMN cofactor) (from UniProt P00324 1-180) (natural protein) |  |
|  |  |  |  | Cc1cc2nc3c(=O)[nH]c(=O)nc-3n(C[C@H](O)[C@H](O)[C@H](O)COP(=O)(O)O)c2cc1C [FMN] | flavodoxin indeed contains a single, non-covalently bound, FMN cofactor |
